How the values were obtained:
[1] = target: CP-capped actin filament barbed end (BC) (rabbit | not stated) (UniProt P68135); assay: microfluidics-assisted single-filament fluorescence microscopy (kinetics of elongation changes); set-up #1: CP-capped barbed ends (BC) exposed to formin without PA for T_(expo) (BC+F→BCF), then PA alone (constants 'from BCF'); k′+F from a fit, not measured directly; F-buffer pH 7.8, 50 mM KCl, room temperature
[2] = target: actin filament free barbed end (B) (rabbit) (UniProt P68135); assay: microfluidics-assisted single-filament fluorescence microscopy (kinetics of elongation changes); set-up #1: filaments from surface-anchored spectrin–actin seeds, free barbed ends exposed to flows of CP or formin with profilin-actin (1 μM actin, 4 μM profilin); off-rates in PA alone; F-buffer pH 7.8, 50 mM KCl, room temperature; KD from the rate constants
[3] = target: CP-capped actin filament barbed end (BC) (rabbit | not stated) (UniProt P68135); assay: microfluidics-assisted single-filament fluorescence microscopy (kinetics of elongation changes); set-up #1: formin-bound barbed ends (BF) exposed to CP + PA (BF+C→BFC), then PA alone (constants 'from BFC'); unlabelled formin; F-buffer pH 7.8, 50 mM KCl, room temperature
[4] = target: CP-capped actin filament barbed end (BC) (rabbit | not stated) (UniProt P68135); assay: microfluidics-assisted single-filament fluorescence microscopy (kinetics of elongation changes); set-up #2: biotin-SNAP-mDia1 anchored on neutravidin coverslip, insertional barbed-end assembly; exposed to CP + unlabelled PA, then PA alone; detachment = BFC→BC+F, resumed growth = BFC→BF+C; F-buffer pH 7.8, 50 mM KCl, room temperature

| koff [1] | kon [1] | kon [2] | Kd [3] | koff [3] | Kd [4] | Substance |
| --- | --- | --- | --- | --- | --- | --- |
| 0.0094 s⁻¹ | 115000 M⁻¹ s⁻¹ | 1.54e+06 M⁻¹ s⁻¹ | – | – | – | GST–FH1(8P)–FH2–C of formin FMNL2 (from UniProt Q96PY5-3 1-1092) (domain or fragment) |
| 0.0062 s⁻¹ | 1.6e+06 M⁻¹ s⁻¹ | – | 3 to 4 nM | 0.0042 s⁻¹ | – | FH1–FH2–DAD domain of human formin mDia1 (unlabelled) (from UniProt O60610 583-1272) (domain or fragment) |
| – | – | – | – | – | 4 nM | biotinylated SNAP-mDia1(FH1–FH2–DAD)-His (from UniProt O60610 1-1272) (domain or fragment) |

Reference: publication PMC4660058
